Literature values, collected in patent US20230192878A1, “METHODS, THERAPIES AND USES FOR TREATING CANCER” (PFIZER INC., priority 2020, published 2023).

Target: T1, BCMA (Homo sapiens, UniProt Q02223)
T1 sequence (Q02223 1-184): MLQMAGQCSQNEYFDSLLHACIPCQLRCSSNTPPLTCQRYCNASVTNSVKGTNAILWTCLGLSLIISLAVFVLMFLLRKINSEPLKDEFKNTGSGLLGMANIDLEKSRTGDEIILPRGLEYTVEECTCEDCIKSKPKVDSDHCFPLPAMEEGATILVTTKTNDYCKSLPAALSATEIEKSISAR
Details: binding to BCMA; read-out: affinity; cited from earlier work

## BAFF: B-cell activation factor, ligand of BCMA
  Kd: 1 µM

## APRIL: a proliferation-inducing ligand, ligand of BCMA
  Kd: 0.016 µM
